Data on one molecule can be found in article PMC10517016, “SCARB2 drives hepatocellular carcinoma tumor initiating cells via enhanced MYC transcriptional activity” (Nature Communications, 2023).

This assay deals with T1, Purified His-tagged MYC (UniProt P01106 1-454).
T1 construct: MYC, purified recombinant protein bought from Origene; also called MYC (TP760019); source: bought: Origene (TP760019), purified
Kind of assay: co-IP; in vitro: 5 ug of each purified protein mixed in 100 ul of 1% NP-40, 120 mM NaCl, 40 mM tris-HCl pH 7.4, 1.5 mM sodium orthovanadate, 50 mM sodium fluoride, 10 mM sodium pyrophosphate, protease inhibitors, 6 h at 4 °C, then immunoprecipitation. The following applies: both partners purified.

T1 sequence (P01106 whole entry): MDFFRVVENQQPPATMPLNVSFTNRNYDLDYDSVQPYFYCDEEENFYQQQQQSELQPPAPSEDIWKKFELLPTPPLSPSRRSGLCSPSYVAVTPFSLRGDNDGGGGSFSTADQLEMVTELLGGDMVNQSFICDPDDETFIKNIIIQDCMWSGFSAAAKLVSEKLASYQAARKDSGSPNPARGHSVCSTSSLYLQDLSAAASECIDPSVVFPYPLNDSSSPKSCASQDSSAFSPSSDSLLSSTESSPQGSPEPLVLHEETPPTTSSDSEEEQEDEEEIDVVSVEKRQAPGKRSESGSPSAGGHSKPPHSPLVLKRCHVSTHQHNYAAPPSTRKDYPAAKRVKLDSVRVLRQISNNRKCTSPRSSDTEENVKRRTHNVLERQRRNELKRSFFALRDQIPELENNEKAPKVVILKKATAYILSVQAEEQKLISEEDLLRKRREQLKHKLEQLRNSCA

B1: Purified GST-tagged HDAC3 (enzyme, UniProt O15379 1-428, looked up)
chain: MAKTVAYFYDPDVGNFHYGAGHPMKPHRLALTHSLVLHYGLYKKMIVFKPYQASQHDMCRFHSEDYIDFLQRVSPTNMQGFTKSLNAFNVGDDCPVFPGLFEFCSRYTGASLQGATQLNNKICDIAINWAGGLHHAKKFEASGFCYVNDIVIGILELLKYHPRVLYIDIDIHHGDGVQEAFYLTDRVMTVSFHKYGNYFFPGTGDMYEVGAESGRYYCLNVPLRDGIDDQSYKHLFQPVINQVVDFYQPTCIVLQCGADSLGCDRLGCFNLSIRGHGECVEYVKSFNIPLLVLGGGGYTVRNVARCWTYETSLLVEEAISEELPYSEYFEYFAPDFTLHPDVSTRIENQNSRQYLDQIRQTIFENLKMLNHAPSVQIHDVPADLLTYDRTDEADAEERGPEENYSRPEAPNEFYDGDHDNDKESDVEI
notes: Histone deacetylase 3, purified recombinant protein bought from Sino Biological; also called HDAC3 (11511-H20B); source: bought: Sino Biological (11511-H20B), purified
Regarding B1, the binding result is “binds”.
